Experimental data taken from patent US20030082745A1 (published 2003).

Key:
[1] = target: T1, pol κ (primary protein product of POLK; DNA polymerase κ) (human, UniProt Q9UBT6 1-870); test: yeast two-hybrid
T1 construct: Tested as a yeast two-hybrid fusion (FLAG-modified pGBT9 / pGAD424); also called DINB1 product
T1 sequence (looked up): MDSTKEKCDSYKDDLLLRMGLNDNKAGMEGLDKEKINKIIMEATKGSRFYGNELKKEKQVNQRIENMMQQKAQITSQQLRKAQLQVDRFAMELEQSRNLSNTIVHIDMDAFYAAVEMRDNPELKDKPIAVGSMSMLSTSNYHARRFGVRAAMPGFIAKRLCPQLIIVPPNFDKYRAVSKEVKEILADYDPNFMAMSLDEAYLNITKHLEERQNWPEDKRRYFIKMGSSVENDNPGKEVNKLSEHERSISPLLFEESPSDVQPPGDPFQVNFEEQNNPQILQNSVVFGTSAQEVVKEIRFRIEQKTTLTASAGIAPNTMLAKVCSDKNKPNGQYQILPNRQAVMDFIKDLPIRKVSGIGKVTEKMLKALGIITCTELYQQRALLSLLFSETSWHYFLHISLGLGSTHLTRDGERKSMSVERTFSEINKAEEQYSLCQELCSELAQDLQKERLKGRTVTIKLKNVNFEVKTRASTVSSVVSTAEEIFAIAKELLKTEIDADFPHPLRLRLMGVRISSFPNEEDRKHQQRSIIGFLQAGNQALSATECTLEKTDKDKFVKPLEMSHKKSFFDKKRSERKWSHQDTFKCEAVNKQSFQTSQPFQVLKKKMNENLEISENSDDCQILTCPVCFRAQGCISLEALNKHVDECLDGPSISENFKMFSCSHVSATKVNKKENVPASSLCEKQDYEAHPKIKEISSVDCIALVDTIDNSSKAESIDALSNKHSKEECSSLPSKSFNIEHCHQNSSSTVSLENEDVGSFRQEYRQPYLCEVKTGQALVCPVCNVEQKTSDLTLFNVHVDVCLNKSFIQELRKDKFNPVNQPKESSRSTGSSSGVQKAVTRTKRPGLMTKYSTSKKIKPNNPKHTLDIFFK

[2] = target: T2, pol κ76 (76 kDa alternatively spliced isoform product of POLK) (human, UniProt Q9UBT6 1-870); test: yeast two-hybrid
T2 construct: Tested as a yeast two-hybrid fusion (FLAG-modified pGBT9 / pGAD424); also called 76-kDa pol κ isoform
T2 sequence: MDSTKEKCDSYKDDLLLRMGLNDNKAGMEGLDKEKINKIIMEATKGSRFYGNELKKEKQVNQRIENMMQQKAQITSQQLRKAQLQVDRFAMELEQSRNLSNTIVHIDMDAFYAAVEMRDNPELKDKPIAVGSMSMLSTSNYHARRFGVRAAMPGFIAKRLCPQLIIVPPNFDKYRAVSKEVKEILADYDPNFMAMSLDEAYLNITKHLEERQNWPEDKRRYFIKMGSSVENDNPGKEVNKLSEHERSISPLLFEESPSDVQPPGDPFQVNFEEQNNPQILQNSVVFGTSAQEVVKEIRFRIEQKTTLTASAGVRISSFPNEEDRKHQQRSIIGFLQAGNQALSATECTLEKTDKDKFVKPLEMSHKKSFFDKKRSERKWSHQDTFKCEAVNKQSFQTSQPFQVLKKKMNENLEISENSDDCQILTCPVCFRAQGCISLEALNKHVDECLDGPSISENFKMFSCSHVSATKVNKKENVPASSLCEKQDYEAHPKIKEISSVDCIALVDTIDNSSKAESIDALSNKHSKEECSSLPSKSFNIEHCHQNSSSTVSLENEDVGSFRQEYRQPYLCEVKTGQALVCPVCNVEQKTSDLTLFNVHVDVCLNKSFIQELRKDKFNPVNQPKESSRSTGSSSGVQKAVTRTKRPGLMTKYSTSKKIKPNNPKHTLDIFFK

binding result [1]	binding result [2]	Binder
no binding	no binding	GPBP (Goodpasture antigen binding protein) (enzyme, UniProt Q9Y5P4 1-624, looked up, Two-hybrid construct (fusion domain, limits, species) is not described; also called product of COL4A3BP) MSDNQSWNSSGSEEDPETESGPPVERCGVLSKWTNYIHGWQDRWVVLKNNALSYYKSEDETEYGCRGSICLSKAVITPHDFDECRFDISVNDSVWYLRAQDPDHRQQWIDAIEQHKTESGYGSESSLRRHGSMVSLVSGASGYSATSTSSFKKGHSLREKLAEMETFRDILCRQVDTLQKYFDACADAVSKDELQRDKVVEDDEDDFPTTRSDGDFLHSTNGNKEKLFPHVTPKGINGIDFKGEAITFKATTAGILATLSHCIELMVKREDSWQKRLDKETEKKRRTEEAYKNAMTELKKKSHFGGPDYEEGPNSLINEEEFFDAVEAALDRQDKIEEQSQSEKVRLHWPTSLPSGDAFSSVGTHRFVQKPYSRSSSMSSIDLVSASDDVHRFSSQVEEMVQNHMTYSLQDVGGDANWQLVVEEGEMKVYRREVEENGIVLDPLKATHAVKGVTGHEVCNYFWNVDVRNDWETTIENFHVVETLADNAIIIYQTHKRVWPASQRDVLYLSVIRKIPALTENDPETWIVCNFSVDHDSAPLNNRCVRAKINVAMICQTLVSPPEGNQEISRDNILCKITYVANVNPGGWAPASVLRAVAKREYPKFLKRFTSYVQEKTAGKPILF
no binding	no binding	GPBPΔ26 (Goodpasture antigen binding protein alternatively spliced product deleted for 26 amino acid residues) (enzyme, Splice isoform of the entry named (26 residues deleted); Two-hybrid construct not described; also called GPBPΔ26) MSDNQSWNSSGSEEDPETESGPPVERCGVLSKWTNYIHGWQDRWVVLKNNALSYYKSEDETEYGCRGSICLSKAVITPHDFDECRFDISVNDSVWYLRAQDPDHRQQWIDAIEQHKTESGYGSESSLRRHGSMVSLVSGASGYSATSTSSFKKGHSLREKLAEMETFRDILCRQVDTLQKYFDACADAVSKDELQRDKVVEDDEDDFPTTRSDGDFLHSTNGNKEKLFPHVTPKGINGIDFKGEAITFKATTAGILATLSHCIELMVKREDSWQKRLDKETEKKRRTEEAYKNAMTELKKKSHFGGPDYEEGPNSLINEEEFFDAVEAALDRQDKIEEQSQSEKVRLHWPTSLPSGDAFSSVGTHRFVQKVEEMVQNHMTYSLQDVGGDANWQLVVEEGEMKVYRREVEENGIVLDPLKATHAVKGVTGHEVCNYFWNVDVRNDWETTIENFHVVETLADNAIIIYQTHKRVWPASQRDVLYLSVIRKIPALTENDPETWIVCNFSVDHDSAPLNNRCVRAKINVAMICQTLVSPPEGNQEISRDNILCKITYVANVNPGGWAPASVLRAVAKREYPKFLKRFTSYVQEKTAGKPILF
